This sample holds only a part of the variants without activity.
Experiments:
biotinyl-Ile-oxazolone = test: self-aminoacylation, catalytic enhancement (BIO) (fold over background); higher = more active; k-Seq, kA / k0A0; sequences stand for … in GGGAAUGGAUCCACAUCUACGAAUUC…UUCACUGCAGACUUGACGAAGCUG
In short: (§1)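 Mutagenized RNA pools with a 21-nt variable region (0.43 μM) were reacted with each biotinyl-aminoacyl-oxazolone at 2–1250 μM for 90 minutes at room temperature, in 50 μL HEPES/NaCl/KCl/MgCl2/CaCl2 buffer containing 5% acetonitrile at pH 6.9–7.0. RNA captured on streptavidin was quantified by triplicate qPCR and by Illumina sequencing. The fraction reacted for each sequence was fit to a pseudo-first-order model with bootstrapping, and catalytic enhancement is the median kA divided by the uncatalyzed rate, taken as the low-activity peak of a bimodal Gaussian fit.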

biotinyl-Val-oxazolone = test: self-aminoacylation, catalytic enhancement (BVO) (fold over background); higher = more active; k-Seq, kA / k0A0; sequences stand for … in GGGAAUGGAUCCACAUCUACGAAUUC…UUCACUGCAGACUUGACGAAGCUG
In short: as §1

biotinyl-Met-oxazolone = test: self-aminoacylation, catalytic enhancement (BMO) (fold over background); higher = more active; k-Seq, kA / k0A0; sequences stand for … in GGGAAUGGAUCCACAUCUACGAAUUC…UUCACUGCAGACUUGACGAAGCUG
In short: as §1

biotinyl-Phe-oxazolone = test: self-aminoacylation, catalytic enhancement (BFO) (fold over background); higher = more active; k-Seq, kA / k0A0; sequences stand for … in GGGAAUGGAUCCACAUCUACGAAUUC…UUCACUGCAGACUUGACGAAGCUG
In short: as §1

biotinyl-Leu-oxazolone = test: self-aminoacylation, catalytic enhancement (BLO) (fold over background); higher = more active; k-Seq, kA / k0A0; sequences stand for … in GGGAAUGGAUCCACAUCUACGAAUUC…UUCACUGCAGACUUGACGAAGCUG
In short: as §1

biotinyl-Trp-oxazolone = test: self-aminoacylation, catalytic enhancement (BWO) (fold over background); higher = more active; k-Seq, kA / k0A0; sequences stand for … in GGGAAUGGAUCCACAUCUACGAAUUC…UUCACUGCAGACUUGACGAAGCUG
In short: as §1

Row | Sequence | self-aminoacylation (biotinyl-Ile-oxazolone) | self-aminoacylation (biotinyl-Val-oxazolone) | self-aminoacylation (biotinyl-Met-oxazolone) | self-aminoacylation (biotinyl-Phe-oxazolone) | self-aminoacylation (biotinyl-Leu-oxazolone) | self-aminoacylation (biotinyl-Trp-oxazolone)
1 | AAAUUUGCUAAUAGUCGCUAG [Fam3.1 aminoacylation ribozyme variant] | 1.73 | 1.58 | 1.22 | 2.81 | 1.38 | 2.84
2 | AUUCACGUAGGUCAUCGGCUG [Fam2.2 aminoacylation ribozyme variant] | 2.35 | 3.36 | 2.35 | 6.6 | 2.91 | 3.17
3 | UUUACCCUGGUCAUCGAGAGA [Fam2.1 aminoacylation ribozyme variant] | 1.28 | 1.3 | 1.61 | 2.19 | 1.32 | 1.86
4 | CCACACUUUAAGCAACCGGUC [Fam1B.1 aminoacylation ribozyme variant] | 0.795 | 0.884 | 0.613 | 0.959 | 0.844 | 0.72
5 | AAGUUUUCUAAUAGUGGCAAG [Fam3.1 aminoacylation ribozyme variant] | 0.856 | 0.662 | 0.758 | 0.75 | 0.804 | 0.658
6 | CCACACUCCAAGCAUUCGGUC [Fam1B.1 aminoacylation ribozyme variant] |  | 2.83 |  |  |  | 
7 | AUUCACCUAGAUCCUCGGGUG [Fam2.2 aminoacylation ribozyme variant] | 2.22 | 1.99 | 3.57 | 22.6 | 4.04 | 3.16
8 | AAGUUUACUGAUAGUCGCAAG [Fam3.1 aminoacylation ribozyme variant] | 1.62 | 1.32 | 1.02 | 2.67 | 1.38 | 1.55
9 | AUUAACCUGGUCAGCGAGUGA [Fam2.1 aminoacylation ribozyme variant] | 2.57 | 2.81 | 4.41 | 19.5 | 4.19 | 4.66
10 | AAGUUCGCUAAUAGUCGCAAU [Fam3.1 aminoacylation ribozyme variant] |  | 2.03 | 2.1 | 3.19 |  | 2.44
11 | AUUCACCUAGCUGAUCGGGUG [Fam2.2 aminoacylation ribozyme variant] | 2.29 | 2.63 |  | 8.31 | 2.82 | 
12 | CCACACUGCAAGCAAUCGGGC [Fam1B.1 aminoacylation ribozyme variant] |  | 2.56 |  |  |  | 3
13 | CCGCACCUCAAGCAAUCGGUC [Fam1B.1 aminoacylation ribozyme variant] |  | 2.16 |  | 6.19 |  | 5.62
14 | AACUUUGCUCAUAGUCGCAAG [Fam3.1 aminoacylation ribozyme variant] | 2.01 |  | 2 | 10.8 | 2.47 | 2.34
15 | UUUACCCUGGUCAUCGAGGGA [Fam2.1 aminoacylation ribozyme variant] |  | 2.19 |  | 3.55 |  | 2.85
16 | CUACGUCAAACAAUCGGCCUG [Fam1A.1 aminoacylation ribozyme variant] | 2.56 | 2.84 | 2.29 |  | 2.69 | 4.49
17 | AAUUUAGCUAAUAGUCGCAAG [Fam3.1 aminoacylation ribozyme variant] | 2.02 |  |  | 2.58 |  | 
18 | CCCCACUUCAAGCAGUCGGUC [Fam1B.1 aminoacylation ribozyme variant] |  | 2.23 |  | 3.77 | 2.2 | 3.29
19 | CCCCACUUCGAGCAAUCGGUC [Fam1B.1 aminoacylation ribozyme variant] | 2.2 | 2.51 |  | 5.48 | 2.16 | 4.05

Row | Sequence | self-aminoacylation (biotinyl-Ile-oxazolone) | self-aminoacylation (biotinyl-Val-oxazolone) | self-aminoacylation (biotinyl-Met-oxazolone) | self-aminoacylation (biotinyl-Phe-oxazolone) | self-aminoacylation (biotinyl-Leu-oxazolone) | self-aminoacylation (biotinyl-Trp-oxazolone)
20 | AUUACCCUGUUCAUCGAGUGU [Fam2.1 aminoacylation ribozyme variant] |  | 2.02 | 2.84 |  | 2.1 | 3.95
21 | AAUACCCUGUUCAUCGAGUGA [Fam2.1 aminoacylation ribozyme variant] |  | 2.14 | 3 | 9.83 | 3.46 | 4.5
22 | CUUCACCUAGGUCAUCGGGCG [Fam2.2 aminoacylation ribozyme variant] | 2.36 | 2.97 | 3.57 |  | 2.75 | 4.39
23 | CCACACUUCAAGCAAUGGGCC [Fam1B.1 aminoacylation ribozyme variant] |  | 2.81 |  |  |  | 
24 | CCACACUUCAAGCAGUCGGGC [Fam1B.1 aminoacylation ribozyme variant] | 2.15 | 2.36 | 2.5 |  | 2.19 | 
25 | GAGUUUGCUAAUAGUCGCAAU [Fam3.1 aminoacylation ribozyme variant] | 2.21 |  |  | 2.19 |  | 3.41
26 | CCCCAUUUCAAGCAAUCGGUC [Fam1B.1 aminoacylation ribozyme variant] | 2.26 | 2.07 |  | 9.72 |  | 7.54
27 | CCACACUUCAAGCAUUCCGUC [Fam1B.1 aminoacylation ribozyme variant] | 3.19 | 3 | 2.55 |  | 2.51 | 3.14
28 | AUUCACCAAGGUCAUCGGGGG [Fam2.2 aminoacylation ribozyme variant] | 2.02 |  | 2.23 | 11.9 | 2.72 | 2.91
29 | AUUCACCUGGGUCAUCGGCUG [Fam2.2 aminoacylation ribozyme variant] | 2.01 | 2.54 |  | 8.1 | 2.27 | 
30 | AUUCACCCAGGUCAUCGGGUU [Fam2.2 aminoacylation ribozyme variant] |  | 2.14 | 2.16 | 6.46 | 2.65 | 
31 | AGGUUUGCCAAUAGUCGCAAG [Fam3.1 aminoacylation ribozyme variant] | 2.1 |  | 2.31 | 9.52 | 2.31 | 3.7
32 | CCACACUUGAAGCAAUCGGCC [Fam1B.1 aminoacylation ribozyme variant] |  | 3.19 |  |  | 2.24 | 2.29
33 | CCAGACUUCAAGCAAUCGGGC [Fam1B.1 aminoacylation ribozyme variant] | 2.71 | 3.13 |  |  | 2.69 | 3.72
34 | CUACUUCAAACAAUCGGCCGG [Fam1A.1 aminoacylation ribozyme variant] | 2.09 |  |  | 2.44 |  | 
35 | AGUCACCUAGGUCAUCAGGUG [Fam2.2 aminoacylation ribozyme variant] |  | 2.09 |  | 8.84 | 2.1 | 
36 | AUUCACCUAGGUAACCGGGUG [Fam2.2 aminoacylation ribozyme variant] |  |  | 2.57 | 11 | 2.85 | 2.56
37 | AUUACUCUGGUCAUCAAGUGA [Fam2.1 aminoacylation ribozyme variant] |  |  | 2.47 | 4.38 | 2.29 | 3.07
38 | AAGCUUGUUAAUAGUCGCAAG [Fam3.1 aminoacylation ribozyme variant] | 2.21 |  | 2.26 | 3.63 | 2.38 | 2.3

Row | Sequence | self-aminoacylation (biotinyl-Ile-oxazolone) | self-aminoacylation (biotinyl-Val-oxazolone) | self-aminoacylation (biotinyl-Met-oxazolone) | self-aminoacylation (biotinyl-Phe-oxazolone) | self-aminoacylation (biotinyl-Leu-oxazolone) | self-aminoacylation (biotinyl-Trp-oxazolone)
39 | AUUCACCUAGGACAUCGGGGG [Fam2.2 aminoacylation ribozyme variant] |  | 2.18 | 3.13 | 10.4 | 2.63 | 
40 | CCCCACUCCAAGCAAUCGGUC [Fam1B.1 aminoacylation ribozyme variant] |  | 2.19 |  | 8.62 |  | 6.53
41 | CCACAACUCAAGCAAUCGGUC [Fam1B.1 aminoacylation ribozyme variant] |  | 2.23 |  | 2.62 |  | 
42 | AUUACCCUGGUCUGCGAGUGA [Fam2.1 aminoacylation ribozyme variant] |  |  | 2.15 | 9.18 | 2.72 | 2.62
43 | AUUAGCCUGGUCAUCGAGUGG [Fam2.1 aminoacylation ribozyme variant] |  |  | 2.81 | 2.98 | 2.35 | 3.05
44 | CCACACGUCAAGCAAUCCGUC [Fam1B.1 aminoacylation ribozyme variant] |  | 2.22 |  |  |  | 2.45
45 | AAGUUCGCUAAUAGUCGCAAA [Fam3.1 aminoacylation ribozyme variant] | 2.49 |  | 2.01 | 4.42 | 2.63 | 2.76
46 | AUUCACCUAAUUCAUCGGGUG [Fam2.2 aminoacylation ribozyme variant] |  |  | 2.68 | 15.5 | 3.05 | 3.32
47 | CCGCUUCAAACAAUCGGUCUG [Fam1A.1 aminoacylation ribozyme variant] |  | 2.4 | 2.68 | 257 | 4.82 | 95.9
48 | AAUUUUACUAAUAGUCGCAAG [Fam3.1 aminoacylation ribozyme variant] | 2.01 |  |  | 2.67 |  | 
49 | AUUCACCGAGGUCAUCGGUUG [Fam2.2 aminoacylation ribozyme variant] |  |  | 3.52 | 29 | 4.89 | 2.6
50 | ACUACCCUCGUCAUCGAGUGA [Fam2.1 aminoacylation ribozyme variant] |  | 2.32 | 2.71 | 4.34 | 3.13 | 2.14
51 | AUUCACCCAGCUCAUCGGGUG [Fam2.2 aminoacylation ribozyme variant] | 2.73 | 2.19 | 2.49 | 6.9 | 2.43 | 
52 | CAACUUCAAACAAUCGGGCUG [Fam1A.1 aminoacylation ribozyme variant] | 2.18 | 2.25 |  | 23.8 | 2.58 | 20.1
53 | AUUACACUGGUCAUCAAGUGA [Fam2.1 aminoacylation ribozyme variant] |  |  | 2.7 | 3.52 | 2.31 | 3.18
54 | CUUACCCUGGUCAUCGAGGGA [Fam2.1 aminoacylation ribozyme variant] |  | 2.04 |  |  |  | 
55 | CCACACUUCAAGCCAUCGGUU [Fam1B.1 aminoacylation ribozyme variant] |  | 2.18 |  | 2.81 |  | 2.06
56 | AUUCACCUAGGUCAUCGCGUC [Fam2.2 aminoacylation ribozyme variant] |  | 2.15 | 2.3 | 9.82 |  | 2.85
